According to paper PMC5802723, “Pro-metastatic collagen lysyl hydroxylase dimer assemblies stabilized by Fe^2+-binding” (Nature Communications, 2018):

Legend:
[1] = biological target: bovine skin collagen substrate containing no telopeptides (Bovine PureCol) (bovine) (UniProt P02453)
[2] = biological target: L230 LH domain (amino acids 680-895), wild type (Acanthamoeba polyphaga mimivirus); assay: SAXS; L230 LH domain in solution, three concentrations diluted from 6 mg/ml, merged; SIBYLS beamline
[3] = biological target: L230 LH domain (amino acids 680-895), wild type (Acanthamoeba polyphaga mimivirus); assay: SEC-MALS; L230 variants, 3 mg/ml, 150 ul, Superdex 75; 20 mM Tris pH 8, 200 mM NaCl, 0.02% sodium azide, room temperature
[4] = biological target: L230 LH domain (amino acids 680-895), wild type (Acanthamoeba polyphaga mimivirus); assay: MST; Atto647-labelled L230 (40 nM, 10 ul) mixed with equal volume of unlabelled L230 (8.5 uM-0.5 nM); incubated at 25 °C for 15 min, measured at 20 °C; dimer to monomers
[5] = biological target: the molecule itself; assay: SEC-MALS; Human LH2 proteins, 2 mg/ml, 100 ul, Superdex 200; 20 mM Tris pH 8, 200 mM NaCl, 0.02% sodium azide, room temperature

bovine skin collagen substrate containing no telopeptides (Bovine PureCol) (bovine), sequence (P02453 162-1217, chain 1 of 2): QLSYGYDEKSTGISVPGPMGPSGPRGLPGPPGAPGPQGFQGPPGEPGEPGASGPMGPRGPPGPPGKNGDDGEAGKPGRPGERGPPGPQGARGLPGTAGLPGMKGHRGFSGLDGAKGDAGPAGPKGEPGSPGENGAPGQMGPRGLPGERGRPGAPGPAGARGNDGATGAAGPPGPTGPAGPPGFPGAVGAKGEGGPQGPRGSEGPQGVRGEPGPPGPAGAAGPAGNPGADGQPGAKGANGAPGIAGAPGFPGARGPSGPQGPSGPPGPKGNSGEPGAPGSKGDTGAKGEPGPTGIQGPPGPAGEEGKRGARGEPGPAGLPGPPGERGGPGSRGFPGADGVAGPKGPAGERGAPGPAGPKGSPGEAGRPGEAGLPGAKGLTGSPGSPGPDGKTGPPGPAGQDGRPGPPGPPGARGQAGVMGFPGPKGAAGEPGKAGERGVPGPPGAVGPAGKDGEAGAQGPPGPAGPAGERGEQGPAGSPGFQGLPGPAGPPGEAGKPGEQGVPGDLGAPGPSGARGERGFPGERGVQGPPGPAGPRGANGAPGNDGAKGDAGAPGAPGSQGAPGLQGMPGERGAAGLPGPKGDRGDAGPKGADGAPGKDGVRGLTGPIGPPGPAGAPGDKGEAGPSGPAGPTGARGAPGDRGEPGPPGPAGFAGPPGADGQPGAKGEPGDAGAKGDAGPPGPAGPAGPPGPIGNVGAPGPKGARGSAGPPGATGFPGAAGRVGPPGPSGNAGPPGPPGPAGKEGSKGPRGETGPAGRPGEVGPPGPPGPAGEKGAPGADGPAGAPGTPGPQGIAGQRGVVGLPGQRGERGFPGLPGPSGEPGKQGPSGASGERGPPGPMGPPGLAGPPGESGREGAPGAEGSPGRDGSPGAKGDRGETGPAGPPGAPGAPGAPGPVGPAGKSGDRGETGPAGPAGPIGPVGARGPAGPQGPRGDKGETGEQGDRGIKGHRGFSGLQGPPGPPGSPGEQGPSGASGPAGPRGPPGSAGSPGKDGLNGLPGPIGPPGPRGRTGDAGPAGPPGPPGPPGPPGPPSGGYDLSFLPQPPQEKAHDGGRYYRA
bovine skin collagen substrate containing no telopeptides (Bovine PureCol) (bovine), sequence (P02465 80-1117, chain 2 of 2, further chain): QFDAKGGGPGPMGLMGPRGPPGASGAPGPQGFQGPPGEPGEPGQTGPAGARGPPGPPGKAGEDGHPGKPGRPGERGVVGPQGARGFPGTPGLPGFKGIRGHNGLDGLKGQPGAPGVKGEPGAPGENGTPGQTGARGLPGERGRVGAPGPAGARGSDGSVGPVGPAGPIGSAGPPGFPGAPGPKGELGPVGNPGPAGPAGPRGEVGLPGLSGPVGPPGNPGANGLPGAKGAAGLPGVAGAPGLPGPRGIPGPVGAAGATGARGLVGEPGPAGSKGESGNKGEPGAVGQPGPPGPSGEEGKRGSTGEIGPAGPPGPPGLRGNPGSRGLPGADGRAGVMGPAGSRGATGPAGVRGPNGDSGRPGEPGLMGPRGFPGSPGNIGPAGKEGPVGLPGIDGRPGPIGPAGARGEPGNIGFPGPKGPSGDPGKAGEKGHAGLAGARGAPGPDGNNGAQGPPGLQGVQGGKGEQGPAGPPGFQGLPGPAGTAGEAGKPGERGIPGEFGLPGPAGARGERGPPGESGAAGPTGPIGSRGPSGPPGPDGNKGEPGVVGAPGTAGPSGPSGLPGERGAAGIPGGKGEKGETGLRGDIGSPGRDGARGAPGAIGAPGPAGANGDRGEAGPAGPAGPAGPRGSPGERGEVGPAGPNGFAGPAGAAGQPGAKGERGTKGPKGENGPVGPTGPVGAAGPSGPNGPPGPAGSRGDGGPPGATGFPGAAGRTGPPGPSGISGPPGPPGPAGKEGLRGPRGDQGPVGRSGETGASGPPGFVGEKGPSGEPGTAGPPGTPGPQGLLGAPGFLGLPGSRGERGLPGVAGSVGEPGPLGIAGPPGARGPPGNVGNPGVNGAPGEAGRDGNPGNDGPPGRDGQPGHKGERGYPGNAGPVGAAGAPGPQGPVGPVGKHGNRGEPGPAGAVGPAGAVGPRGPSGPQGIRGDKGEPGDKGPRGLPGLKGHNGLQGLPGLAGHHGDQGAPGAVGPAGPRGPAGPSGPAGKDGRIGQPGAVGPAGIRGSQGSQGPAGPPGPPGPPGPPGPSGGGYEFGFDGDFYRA

For “L230 LH domain (amino acids 680-895) K804E (domain or fragment)”, the estimated Km for bovine skin collagen in the enzymatic assay (succinate production); achievable collagen concentrations did not saturate activity [1] was 9.6 µM.

Molecule “L230 LH domain (amino acids 680-895), wild type (domain or fragment)” has a stoichiometry N [2] of 2, an estimated Km for bovine skin collagen in the enzymatic assay (succinate production); achievable collagen concentrations did not saturate activity [1] of 2.6 µM and a stoichiometry N [3] of 2. It also gave a Kd [4] of 23.9 nM.

B1: Human LH2 recombinant protein (residues 33-758), wild type (enzyme, UniProt O00469-2 33-758, looked up)
chain: SIPTDKLLVITVATKESDGFHRFMQSAKYFNYTVKVLGQGEEWRGGDGINSIGGGQKVRLMKEVMEHYADQDDLVVMFTECFDVIFAGGPEEVLKKFQKANHKVVFAADGILWPDKRLADKYPVVHIGKRYLNSGGFIGYAPYVNRIVQQWNLQDNDDDQLFYTKVYIDPLKREAINITLDHKCKIFQTLNGAVDEVVLKFENGKARAKNTFYETLPVAINGNGPTKILLNYFGNYVPNSWTQDNGCTLCEFDTVDLSAVDVHPNVSIGVFIEQPTPFLPRFLDILLTLDYPKEALKLFIHNKEVYHEKDIKVFFDKAKHEIKTIKIVGPEENLSQAEARNMGMDFCRQDEKCDYYFSVDADVVLTNPRTLKILIEQNRKIIAPLVTRHGKLWSNFWGALSPDGYYARSEDYVDIVQGNRVGVWNVPYMANVYLIKGKTLRSEMNERNYFVRDKLDPDMALCRNAREMTLQREKDSPTPETFQMLSPPKGVFMYISNRHEFGRLLSTANYNTSHYNNDLWQIFENPVDWKEKYINRDYSKIFTENIVEQPCPDVFWFPIFSEKACDELVEEMEHYGKWSGGKHHDSRISGGYENVPTDDIHMKQVDLENVWLHFIREFIAPVTLKVFAGYYTKGFALLNFVVKYSPERQRSLRPHHDASTFTINIALNNVGEDFQGGGCKFLRYNCSIESPRKGWSFMHPGRLTHLHEGLPVKNGTRYIAVSFIDP
notes: Human lysyl hydroxylase 2 (LH2), residues 33-758; the printed end at 758 and the residues D689 and L735 fit the 758-residue isoform; also called lysyl hydroxylase 2; source: ExpiCHO cells, transient transfection, secreted
B1: binds [5].
